The nature of the test: NO reactivity. In kind it is biochemical. The procedure: NO reactivity is measured using purified proteins (H-NOX, polymeric H-NOX, Homo sapiens hemoglobin (Hs Hb) etc.) prepared at 2 μM in buffer A and NO prepared at 200 μM in Buffer A (Buffer A: 50 mM Hepes, pH 7.5, 50 mM NaCl). Data are acquired on a HI-TECH Scientific SF-61 stopped-flow spectrophotometer equipped with a Neslab RTE-100 constant-temperature bath set to 20° C. (TGK Scientific LTD., Bradford On Avon, United Kingdom). The protein is rapidly mixed with NO in a 1:1 ratio with an integration time of 0.00125 sec. The wavelengths of maximum change are fit to a single exponential using the software that is part of the spectrometer, essentially measuring the rate-limiting step of oxidation by NO. The end products of the reaction are ferric-NO for the HNOX proteins and ferric-aquo for Hs Hb.

We go through 1 molecule from patent US20210260155A1, “H-NOX Proteins for Treating Cardiovascular and Pulmonary Conditions” (OMNIOX.INC., priority 2018, published 2021).

B1: wild-type T. tengcongensis H-NOX: wild-type Thermoanaerobacter tengcongensis H-NOX protein, SEQ ID NO:2 (protein, listed as Thermoanaerobacter tengcongensis)
chain: MKGTIVGTWIKTLRDLYGNDVVDESLKSVGWEPDRVITPLEDIDDDEVRRIFAKVSEKTGKNVNEIWREVGRQNIKTFSEWFPSYFAGRRLVNFLMMMDEVHLQLTKMIKGATPPRLIAKPVAKDAIEMEYVSKRKMYDYFLGLIEGSSKFFKEEISVEEVERGEKDGFSRLKVRIKFKNPVFE
On to B1, for which the NO reactivity result is listed as “low”.
